Biological target: T1, recombinant human TINAGL1 protein (tubulointerstitial nephritis antigen-like 1), C-6×His (human, UniProt Q9GZM7 22-467)
T1 construct: tubulointerstitial nephritis antigen-like 1 (TINAGL1), human, recombinant; Bought protein; Held on the Ni-NTA chip by its C-terminal His tag; also called rhTINAGL1; source: bought: Novoprotein (Cat# CB22); not shown: His6, C-terminal, kept
T1 sequence (looked up): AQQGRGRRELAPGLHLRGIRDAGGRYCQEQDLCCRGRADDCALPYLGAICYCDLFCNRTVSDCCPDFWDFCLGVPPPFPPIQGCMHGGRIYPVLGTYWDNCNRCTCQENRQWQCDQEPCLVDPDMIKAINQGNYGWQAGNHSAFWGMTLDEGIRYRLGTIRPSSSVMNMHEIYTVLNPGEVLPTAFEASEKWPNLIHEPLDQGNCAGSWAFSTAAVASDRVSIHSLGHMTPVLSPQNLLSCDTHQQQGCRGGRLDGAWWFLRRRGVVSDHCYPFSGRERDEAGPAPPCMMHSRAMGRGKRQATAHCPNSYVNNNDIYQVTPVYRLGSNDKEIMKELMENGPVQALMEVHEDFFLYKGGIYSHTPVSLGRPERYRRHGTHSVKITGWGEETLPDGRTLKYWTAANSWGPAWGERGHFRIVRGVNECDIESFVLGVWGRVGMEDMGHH
Assay: SPR; rhTINAGL1 (C-6×His) immobilised on Ni-NTA chip (Reichert 4SPR, 40 mM nickel sulfate); dilution series of rhPDGF-BB in PBST injected at 62.5 μL/min; association 4 min, dissociation 5 min; TraceDrawer v1.8.1
Conditions: both partners purified

B1: recombinant human PDGF-BB (platelet-derived growth factor-BB) (ligand, UniProt P01127 82-190, looked up)
chain: SLGSLTIAEPAMIAECKTRTEVFEISRRLIDRTNANFLVWPPCVEVQRCSGCCNNRNVQCRPTQVQLRPVQVRKIEIVRKKPIFKKATVTLEDHLACKCETVAAARPVT
notes: platelet-derived growth factor subunit B, human, recombinant PDGF-BB; also called rhPDGF-BB; source: bought: Peprotech (Cat# 100-14B)
- Kd: 185 nM

From paper PMC11705640, “Tubulointerstitial nephritis antigen-like 1 promotes the progression of liver fibrosis after HCV eradication with direct-acting antivirals” (International Journal of Biological Sciences, 2025)
